# In paper doi:10.1101/2025.07.16.665076, “GPLD1 is as a scavenger carrier mediating lysosomal degradation of extracellular aberrant proteins” (bioRxiv, 2025):
# T1: GPLD1-mCherry-sfGFP-His (GPLD1-RG) (human, UniProt P80108 24-840)
# T1 construct: signal peptide in the construct; glycosylphosphatidylinositol-specific phospholipase D1 (GPLD1), human, full length, amplified from HepG2 cDNA; The fusion is said to be 160 kDa; also called GPLD1-RFP-GFP; GPLD1-RG-His; not shown: mCherry, C-terminal, kept; sfGFP, C-terminal, kept; His, C-terminal, kept
# T1 sequence (looked up): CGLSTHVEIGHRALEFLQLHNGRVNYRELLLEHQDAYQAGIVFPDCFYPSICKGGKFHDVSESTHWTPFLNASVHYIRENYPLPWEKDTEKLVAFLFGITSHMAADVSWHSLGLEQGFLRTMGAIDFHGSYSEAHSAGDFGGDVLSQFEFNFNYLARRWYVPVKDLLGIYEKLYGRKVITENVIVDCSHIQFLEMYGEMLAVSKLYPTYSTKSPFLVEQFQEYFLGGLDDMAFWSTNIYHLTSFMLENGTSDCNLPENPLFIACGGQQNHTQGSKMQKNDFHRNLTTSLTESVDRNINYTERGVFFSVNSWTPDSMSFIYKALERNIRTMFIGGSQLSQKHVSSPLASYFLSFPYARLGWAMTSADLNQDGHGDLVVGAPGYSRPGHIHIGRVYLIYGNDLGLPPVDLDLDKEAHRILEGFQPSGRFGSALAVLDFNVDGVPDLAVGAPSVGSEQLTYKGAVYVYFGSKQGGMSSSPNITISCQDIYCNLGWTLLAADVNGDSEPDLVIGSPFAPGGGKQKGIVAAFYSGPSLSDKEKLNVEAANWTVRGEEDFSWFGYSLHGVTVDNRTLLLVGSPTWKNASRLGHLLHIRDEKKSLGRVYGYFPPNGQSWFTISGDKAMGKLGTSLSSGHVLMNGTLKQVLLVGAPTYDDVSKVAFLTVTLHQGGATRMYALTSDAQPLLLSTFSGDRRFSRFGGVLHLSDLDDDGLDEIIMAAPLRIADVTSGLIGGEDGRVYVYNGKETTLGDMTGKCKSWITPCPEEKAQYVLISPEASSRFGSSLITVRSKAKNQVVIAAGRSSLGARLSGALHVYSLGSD
# Molecular target: T1, GPLD1-mCherry-sfGFP-His (GPLD1-RG)
# Test: co-IP; purified RG-tagged protein (GPLD1-RG 40 nM) and ALFA-tagged substrate (His-ALFA-SAA1 500 nM) in PBS, 37°C with shaking for 2 h, aggregates spun out; ALFA nanobody beads at 4°C for 2 h, four washes with PBS; immunoblot
# Conditions: both partners purified
row,binding result,Binder
1,binds,"His-ALFA-SAA1-Full length (SAA1-F) (natural protein, human, UniProt P0DJI8 19-122, looked up, serum amyloid A1 (SAA1), human, amino acids 19-122; Used in native form in the immunoprecipitation; the purification of the native form is not described; also called native ALFA-SAA1-F (full-length); source: E. coli BL21(DE3) pLysS, recombinant; not shown: His, N-terminal, kept; ALFA, N-terminal, kept) RSFFSFLGEAFDGARDMWRAYSDMREANYIGSDKYFHARGNYDAAKRGPGGAWAAEVITDARENIQRFFGHGAEDSLADQAANEWGRSGKDPNHFRPAGLPEKY"
2,binds,"His-ALFA-SAA1-N terminus (SAA1-N) (domain or fragment, human, UniProt P0DJI8 19-94, looked up, serum amyloid A1 (SAA1), human, amino acids 19-94: the N-terminal 76 residues, core amyloidogenic fragment; Prepared in 8 M urea-denatured form for all experiments; it aggregates on incubation in PBS; also called His-ALFA-tagged SAA1-N; source: E. coli BL21(DE3) pLysS, purified from inclusion bodies (Co-NTA, 8 M urea), stored in urea; not shown: His, N-terminal, kept; ALFA, N-terminal, kept) RSFFSFLGEAFDGARDMWRAYSDMREANYIGSDKYFHARGNYDAAKRGPGGAWAAEVITDARENIQRFFGHGAEDS"
